From patent US20200048333A1 (THOMAS JEFFERSON UNIVERSITY, published 2020)
No end group written: not given here.

How the values were obtained:
GYDGDF = biological target: T1, GYDGDF (also: biotinylated (position not given here)); assay: blot: antibody variant immobilized on nitrocellulose, biotinylated peptide bound, chemiluminescence
T1 construct: also called biotinylated α2Ct peptide GYDGDF
T1 peptide: GYDGDF

GDFYRA = biological target: T2, GDFYRA (also: biotinylated (position not given here)); assay: as above
T2 construct: also called biotinylated α2Ct peptide GDFYRA
T2 peptide: GDFYRA

[1] = biological target: T3, human procollagen I isolated from human dermal fibroblasts (human, UniProt P02452 23-1464; P08123 23-1366); assay: biosensor; procollagen I immobilized, Fab in solution
T3 construct: Native triple-helical heterotrimer; also called native α2Ct present in procollagen I
Method: (§1) In brief, human procollagen I isolated from human dermal fibroblasts and synthetic α2Ct were immobilized on separate channels of a biosensor. Subsequently, the full-length AFA or its Fab fragments, generated by digestion with papain, were added at various concentrations to a sensor to record the association and the dissociation phases. Data from the AFA binding interactions and the Fab binding interactions were then used to calculate the KD values. In a separate set of experiments, the binding interactions of the scFv variant consisting of the VL and VH domains connected via a peptide linker were also tested using a biosensor. In these assays, the scFv-procollagen I binding interactions were studied.

[2] = biological target: T4, synthetic full-length α2(I) C-telopeptide of human collagen I (α2Ct) (human); assay: biosensor; synthetic α2Ct immobilized, Fab in solution
T4 construct: also called synthetic α2Ct; full-length α2Ct
T4 peptide: GGGYDFGYDGDFYRA
Method: as §1

[3] = biological target: T3, human procollagen I isolated from human …; assay: biosensor; scFv-procollagen I
Method: as §1

α2Ct fragment DGDFY = biological target: T5, α2Ct fragment DGDFY (human); assay: biosensor; AFA immobilized, peptide in solution
T5 construct: One of the overlapping peptides spanning the human α2Ct; also called A2_DGDFY
T5 peptide: DGDFY
Method: (§2) Kinetics of the binding of the AFA to defined α2Ct epitopes. Employing a biosensor, we also analyzed the kinetics of the binding of the AFA with defined epitopes of the human α2Ct. For these assays we employed the AFA, control human IgG, and a set of overlapping peptides spanning the α2Ct (Table 3). In brief, the AFA and control human IgG were covalently immobilized on separate channels of a sensor chip. Subsequently, the binding of the α2Ct fragments to the immobilized antibodies was analyzed. Finally, the dissociation equilibrium constant (KD) values for each α2Ct fragment were calculated (Table 1).

α2Ct fragment DFYRA = biological target: T6, α2Ct fragment DFYRA (human); assay: biosensor; AFA immobilized, peptide in solution
T6 construct: One of the overlapping peptides spanning the human α2Ct
T6 peptide: DFYRA
Method: as §2

α2Ct fragment GYDFG = biological target: T7, α2Ct fragment GYDFG (human); assay: biosensor; AFA immobilized, peptide in solution
T7 construct: One of the overlapping peptides spanning the human α2Ct
T7 peptide: GYDFG
Method: as §2

α2Ct fragment DFGYD = biological target: T8, α2Ct fragment DFGYD (human); assay: biosensor; AFA immobilized, peptide in solution
T8 construct: One of the overlapping peptides spanning the human α2Ct
T8 peptide: DFGYD
Method: as §2

α2Ct fragment GYDGD = biological target: T9, α2Ct fragment GYDGD (human); assay: biosensor; AFA immobilized, peptide in solution
T9 construct: One of the overlapping peptides spanning the human α2Ct
T9 peptide: GYDGD
Method: as §2

[4] = biological target: T4, synthetic full-length α2(I) …; assay: biosensor; table of α2Ct fragments binding to AFA
Method: as §2

[5] = biological target: T3, human procollagen I isolated from human …; assay: biosensor; procollagen I immobilized, antibody in solution
Method: as §1

[6] = biological target: T4, synthetic full-length α2(I) …; assay: biosensor; synthetic α2Ct immobilized, antibody in solution
Method: as §1

T3 sequence (P02452 23-1464, chain 1 of 2): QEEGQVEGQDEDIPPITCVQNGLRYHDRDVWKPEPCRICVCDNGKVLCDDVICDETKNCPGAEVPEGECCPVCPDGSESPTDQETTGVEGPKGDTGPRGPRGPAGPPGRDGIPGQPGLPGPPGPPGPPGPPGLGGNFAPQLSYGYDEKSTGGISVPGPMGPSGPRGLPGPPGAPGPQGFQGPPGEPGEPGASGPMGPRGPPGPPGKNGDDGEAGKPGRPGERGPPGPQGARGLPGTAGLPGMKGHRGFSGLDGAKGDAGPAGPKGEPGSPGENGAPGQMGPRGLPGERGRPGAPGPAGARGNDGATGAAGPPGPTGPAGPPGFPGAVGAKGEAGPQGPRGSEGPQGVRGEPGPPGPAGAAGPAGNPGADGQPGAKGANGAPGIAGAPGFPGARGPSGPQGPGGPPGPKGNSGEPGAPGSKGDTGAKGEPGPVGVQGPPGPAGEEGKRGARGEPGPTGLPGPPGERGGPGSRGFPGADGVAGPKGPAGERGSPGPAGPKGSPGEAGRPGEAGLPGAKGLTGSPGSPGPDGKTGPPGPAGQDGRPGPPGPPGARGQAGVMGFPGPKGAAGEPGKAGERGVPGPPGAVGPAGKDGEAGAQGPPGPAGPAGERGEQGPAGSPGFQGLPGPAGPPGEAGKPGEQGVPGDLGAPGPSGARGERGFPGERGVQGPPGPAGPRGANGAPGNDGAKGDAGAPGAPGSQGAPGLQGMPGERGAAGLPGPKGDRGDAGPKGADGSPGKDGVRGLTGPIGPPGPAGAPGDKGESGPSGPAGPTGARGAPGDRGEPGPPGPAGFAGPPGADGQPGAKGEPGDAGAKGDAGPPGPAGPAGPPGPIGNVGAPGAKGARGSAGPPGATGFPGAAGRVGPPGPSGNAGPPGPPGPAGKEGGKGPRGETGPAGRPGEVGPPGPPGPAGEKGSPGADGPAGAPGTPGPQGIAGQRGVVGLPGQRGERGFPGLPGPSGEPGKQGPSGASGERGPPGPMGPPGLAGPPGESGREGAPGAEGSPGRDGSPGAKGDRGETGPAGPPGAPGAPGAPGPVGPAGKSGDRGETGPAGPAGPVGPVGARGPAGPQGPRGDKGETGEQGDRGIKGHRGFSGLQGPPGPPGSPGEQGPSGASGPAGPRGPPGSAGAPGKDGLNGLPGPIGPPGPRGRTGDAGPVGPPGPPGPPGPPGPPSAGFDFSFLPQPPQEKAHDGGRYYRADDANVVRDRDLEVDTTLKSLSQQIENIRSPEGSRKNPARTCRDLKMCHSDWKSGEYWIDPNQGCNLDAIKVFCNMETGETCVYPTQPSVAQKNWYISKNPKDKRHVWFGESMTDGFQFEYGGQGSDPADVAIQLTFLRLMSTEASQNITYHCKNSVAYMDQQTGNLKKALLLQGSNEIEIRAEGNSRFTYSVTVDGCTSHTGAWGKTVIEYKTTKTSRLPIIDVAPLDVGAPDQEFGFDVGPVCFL
T3 sequence (P08123 23-1366, chain 2 of 2): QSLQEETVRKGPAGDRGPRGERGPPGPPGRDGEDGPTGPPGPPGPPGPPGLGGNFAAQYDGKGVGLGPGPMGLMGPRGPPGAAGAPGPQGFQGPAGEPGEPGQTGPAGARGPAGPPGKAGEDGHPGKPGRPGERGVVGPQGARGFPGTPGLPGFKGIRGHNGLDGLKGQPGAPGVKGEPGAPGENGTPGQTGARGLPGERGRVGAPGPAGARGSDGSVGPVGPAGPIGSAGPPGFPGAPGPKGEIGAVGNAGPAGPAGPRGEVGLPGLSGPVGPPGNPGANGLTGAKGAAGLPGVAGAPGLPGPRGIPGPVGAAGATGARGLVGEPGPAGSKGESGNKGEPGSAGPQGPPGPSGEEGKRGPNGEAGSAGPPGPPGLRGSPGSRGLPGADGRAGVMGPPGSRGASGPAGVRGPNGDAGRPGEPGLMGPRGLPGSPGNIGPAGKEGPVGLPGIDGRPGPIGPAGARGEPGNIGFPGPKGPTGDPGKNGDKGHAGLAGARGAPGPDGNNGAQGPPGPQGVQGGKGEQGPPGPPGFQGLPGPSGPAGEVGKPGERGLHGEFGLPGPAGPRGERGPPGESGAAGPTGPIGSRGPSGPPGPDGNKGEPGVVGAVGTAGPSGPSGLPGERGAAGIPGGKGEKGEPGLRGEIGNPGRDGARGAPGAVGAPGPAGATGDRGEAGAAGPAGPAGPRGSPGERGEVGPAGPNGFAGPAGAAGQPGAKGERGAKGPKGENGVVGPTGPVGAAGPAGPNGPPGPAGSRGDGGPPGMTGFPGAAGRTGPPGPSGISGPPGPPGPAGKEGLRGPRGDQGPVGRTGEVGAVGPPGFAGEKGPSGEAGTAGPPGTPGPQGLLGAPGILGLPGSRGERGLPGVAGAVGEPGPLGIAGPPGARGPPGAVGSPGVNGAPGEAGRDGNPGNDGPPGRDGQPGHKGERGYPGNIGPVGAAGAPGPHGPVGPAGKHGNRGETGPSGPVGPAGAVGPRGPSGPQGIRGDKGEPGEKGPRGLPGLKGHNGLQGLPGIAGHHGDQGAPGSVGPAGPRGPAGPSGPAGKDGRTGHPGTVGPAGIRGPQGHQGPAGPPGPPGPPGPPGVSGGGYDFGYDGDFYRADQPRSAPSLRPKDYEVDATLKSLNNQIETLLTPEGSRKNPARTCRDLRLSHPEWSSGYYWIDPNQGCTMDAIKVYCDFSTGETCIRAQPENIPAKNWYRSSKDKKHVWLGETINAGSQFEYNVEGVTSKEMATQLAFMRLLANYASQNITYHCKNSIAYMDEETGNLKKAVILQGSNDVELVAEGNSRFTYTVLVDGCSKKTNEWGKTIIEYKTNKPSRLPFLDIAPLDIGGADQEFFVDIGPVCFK

B1: chimeric human IgG-type AFA (antibody, V domains shown)
VH: AQIQLVQSGPELKKPGETVKISCKASGYTFTDYPLHWVKQAPGKGLQWMAWINTETGEPTYADDFTGRFAFSLETSASTAYLQINNLKNEDTATYFCVRGYYYYWGQGTTLSVSS
VL: DIVMSQSPSSLAVSAGEKVTMSCKSSQSLLNSRTRKNNLAWYQQKPGQSPKLLIYWASTRESGVPDRFTGSGSGTDFTLTISSVQAEDLAVYYCKQSYNLWTFGGGTKLEIKR
notes: also called chIgG; chlgG
B1: binds (GYDGDF); binds (GDFYRA).

B2: Fab fragment of the AFA (Fab, V domains shown)
VH: B1 VH
VL: B1 VL
notes: also called Fab AFA antibody; Fab fragments of the AFA
B2 showed a Kd [1] of 0.268 µM and a Kd [2] of 0.057 µM.

B3: original mouse IgA-type AFA (antibody, V domains shown)
VH: B1 VH
VL: B1 VL
notes: Mouse IgA from a hybridoma, with heavy α chain and light κ chain; also called native mouse IgA-type AFA; original IgA-type anti-α2Ct antibody
B3: binds (GYDGDF); binds (GDFYRA).

B4: scFv variant of the AFA consisting of the VL and VH domains connected via a peptide linker (scFv, V domains shown, not shown: small tags and cut ends)
VL: B1 VL
V domain: B1 VH
notes: The domain order VL-linker-VH follows the wording 'VL and VH domains connected via a peptide linker'; also called single chain antibody
B4 was tested, and the Kd [3] was 0.075 µM.

B5: full-length anti-fibrotic antibody (AFA), monoclonal anti-collagen I antibody against the α2(I) C-telopeptide (antibody, V domains shown)
VH: B1 VH
VL: B1 VL
notes: The control was human IgG; also called full-length AFA; Full-length AFA antibody
B5 gave a Kd (α2Ct fragment DGDFY) of 22.2 µM, a Kd (α2Ct fragment DFYRA) of 449 µM and a Kd (α2Ct fragment GYDFG) of 259 µM. The Kd (α2Ct fragment DFGYD) was 6400 µM, the Kd (α2Ct fragment GYDGD) was 604 µM and the Kd [4] was 0.021 nM. It also gave a Kd [5] of 0.000663 µM and a Kd [6] of 0.021 nM.
